{
  "source": "paper doi:10.1101/2025.02.03.636245",
  "target": "OdinSepF (Candidatus Odinarchaeota)",
  "assay": "SEC-MALS",
  "data": [
    {"substance": "OdinSepF (natural protein)", "values": [
      {"measurement": "stoichiometry N", "value": 2}
    ]}
  ]
}
